{
  "source": "paper PMC7337057",
  "origin": "cited, not measured here",
  "key": {"Glu118": {"biological_target": "Glu118 (UniProt position 118, WFVGREQERRG)", "test": "NMR (solid-state)", "details": "not stated for this study (around 0 °C is stated for related SSNMR work from the same laboratory); 0.2 μM K+; K+ titrated at constant pH and ionic strength (value not stated); low ambient K+ (0.2 μM): K+-apo, collapsed selectivity filter, pH gate favoured open"}, "Glu120": {"biological_target": "Glu120 (UniProt position 120, VGREQERRGHF)", "test": "NMR (solid-state)", "details": "not stated for this study (around 0 °C is stated for related SSNMR work from the same laboratory); 0.2 μM K+; K+ titrated at constant pH and ionic strength (value not stated); low ambient K+ (0.2 μM): K+-apo, collapsed selectivity filter, pH gate favoured open"}},
  "data": [
    {"substance": "KcsA potassium channel (pH-gated K+ channel) (Streptomyces lividans)", "values": [
      {"measurement": "pKa", "setting": "Glu118", "value": "above 7.5"},
      {"measurement": "pKa", "setting": "Glu120", "value": "above 7.5"}
    ]}
  ]
}
